Patent US10118947B2, “Modulation of structured polypeptide specificity” (BICYCLE THERAPEUTICS LIMITED, priority 2013, dated 2018)

Target: T1, human plasma Kallikrein (Homo sapiens, UniProt P03952)
T1 construct: purchased Stratech, UK
Assay: Phage selections against human plasma Kallikrein (abundance in selection output)
Type: binding
Settings: Table 17; relative abundance in the total selection outputs
Method: Glycerol stocks of phage libraries were diluted to OD600=0.1 in 500 ml 2YT/chloramphenicol (30 μg/ml) cultures and phage were produced at 30° C. over night (15-16 hrs). Phage were purified and chemically modified as described in Heinis, et al., Nat Chem Biol 2009, 5 (7), 502-7 Biotinylated hPK (3 μg) (IHPKA, from human plasma, Innovative Research, Novi, Mich., USA) was incubated with 50 μl pre-washed magnetic streptavidin beads (Dynal, M-280 from Invitrogen, Paisley, UK) for 10 minutes at RT. Beads were washed 3 times prior to blocking with 0.5 ml washing buffer (10 mM Tris-Cl, pH 7.4, 150 mM NaCl, 10 mM MgCl2, 1 mM CaCl2) containing 1% BSA and 0.1% Tween 20 for 30 minutes at RT with rotation. […] Blocked beads were then mixed with the blocked chemically modified phage and incubated for 30 minutes on a rotating wheel at
RT. Beads were washed 8 times with washing buffer containing 0.1% Tween 20 and twice with washing buffer before incubation with 100 μl of 50 mM glycine, pH 2.2 for 5 minutes. Eluted phage were transferred to 50 μl of 1 M Tris-Cl, pH 8 for neutralization, incubated with 30 ml TG1 cells at OD600=0.4 for 90 minutes at 37° C. and the cells were plated on large 2YT/chloramphenicol plates. One or two additional rounds of panning were performed using the same procedures. In the second round of selection, neutravidin-coated magnetic beads were used to prevent the enrichment of streptavidin-specific peptides. The neutravidin beads were prepared by reacting 0.8 mg neutravidin (Pierce, Rockford, Ill., USA) with 0.5 ml tosyl-activated magnetic beads (Dynal, M-280 from Invitrogen, Paisley, UK) according to the supplier's instructions.
The WPAR (SEQ ID No. 19) motif identified from Example 1 was analysed in the context of the 06-34-03 peptide, in order to identify alternatives or improvements to the WPAR motif. A library was constructed where positions 1, 6, 7, 8, 9 &10 of 06-34-03 were fixed and positions 2, 3, 4 & 5 were randomised (see ‘Randomisation of peptide domains—Library construction’ in Methods above). Selections against human plasma Kallikrein were performed at a variety of stringencies (see Phage selections' in Methods above). All output sequences were identified and analysed for target binding (see ‘Randomisation of peptide domains—Assay of binding of individual clones’ in Methods above). Table 17 lists each unique sequence, its relative abundance in the selection output (frequency), and a rank number according to target binding strength.

T1 sequence (P03952 20-638): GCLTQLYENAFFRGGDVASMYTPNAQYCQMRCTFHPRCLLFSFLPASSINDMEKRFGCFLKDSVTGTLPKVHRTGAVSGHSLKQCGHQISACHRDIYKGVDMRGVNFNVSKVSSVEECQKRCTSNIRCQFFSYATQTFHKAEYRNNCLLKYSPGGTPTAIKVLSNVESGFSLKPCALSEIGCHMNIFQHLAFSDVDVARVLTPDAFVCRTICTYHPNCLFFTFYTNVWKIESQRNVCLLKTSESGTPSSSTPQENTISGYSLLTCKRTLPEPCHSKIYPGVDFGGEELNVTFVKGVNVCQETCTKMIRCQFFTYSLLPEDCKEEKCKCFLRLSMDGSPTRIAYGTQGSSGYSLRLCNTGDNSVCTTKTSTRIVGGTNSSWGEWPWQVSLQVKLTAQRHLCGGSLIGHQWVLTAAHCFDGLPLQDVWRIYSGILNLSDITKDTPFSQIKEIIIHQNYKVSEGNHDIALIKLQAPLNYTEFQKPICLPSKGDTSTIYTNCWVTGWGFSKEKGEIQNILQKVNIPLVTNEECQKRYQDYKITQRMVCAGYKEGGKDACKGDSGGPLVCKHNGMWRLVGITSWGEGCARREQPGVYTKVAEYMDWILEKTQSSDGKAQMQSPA

| Sequence | FREQUENCY |
| --- | --- |
| CSHRRWCTHQDLC | 1 |
| CSWPFRCTHQDLC | 7 |
| CSFMYKCTHQDLC | 1 |
| CSWHARCTHQDLC | 1 |
| CSYPFRCTHQDLC | 1 |
| CSHPFRCTHQDLC | 1 |
| CSWLARCTHQDLC | 8 |
| CSWQARCTHQDLC | 1 |
| CSWSYRCTHQDLC | 1 |
| CSWPYKCTHQDLC | 1 |
| CSYPYRCTHQDLC | 2 |
